Test results reported in article PMC4701059 (Molecular microbiology, 2015).

Legend:
ComP(CD) (his6-ComP(CD)) = ComP(CD) (his6-ComP(CD)) (Bacillus subtilis, UniProt Q99027); assay: autophosphorylation with γ-32P-ATP, SDS-PAGE, phosphorimaging; format: biochemical; details: 0.5 mM ATP; 20 mM MgCl2, pH 8-8.5, 24°C; labelled compound
ComA;Rap60(R26P) = target: T1, ComA;Rap60(R26P) (Bacillus subtilis (genomic DNA; strain …, UniProt P14204;Q45456 2-214;2-375, |R26P); assay: EMSA
T1 sequence 1: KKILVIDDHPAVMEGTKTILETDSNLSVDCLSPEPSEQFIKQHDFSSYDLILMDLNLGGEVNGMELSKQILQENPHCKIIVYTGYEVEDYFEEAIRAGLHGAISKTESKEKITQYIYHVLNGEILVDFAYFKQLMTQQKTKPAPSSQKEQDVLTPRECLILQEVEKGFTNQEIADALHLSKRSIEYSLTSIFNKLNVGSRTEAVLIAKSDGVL
T1 sequence 2: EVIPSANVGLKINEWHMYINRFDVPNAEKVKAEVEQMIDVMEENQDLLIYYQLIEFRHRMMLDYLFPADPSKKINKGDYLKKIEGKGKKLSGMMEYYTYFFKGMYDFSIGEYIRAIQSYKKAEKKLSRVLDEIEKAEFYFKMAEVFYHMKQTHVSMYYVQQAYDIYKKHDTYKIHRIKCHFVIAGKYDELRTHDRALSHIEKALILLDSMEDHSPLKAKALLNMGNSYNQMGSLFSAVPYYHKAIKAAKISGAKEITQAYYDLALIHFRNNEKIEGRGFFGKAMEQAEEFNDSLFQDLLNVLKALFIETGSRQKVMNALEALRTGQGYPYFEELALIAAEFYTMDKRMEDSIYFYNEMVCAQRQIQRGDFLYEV

ComA;Rap60(R26A) = target: T2, ComA;Rap60(R26A) (Bacillus subtilis (genomic DNA; strain …, UniProt P14204;Q45456 2-214;2-375, |R26A); assay: EMSA
T2 sequence 1: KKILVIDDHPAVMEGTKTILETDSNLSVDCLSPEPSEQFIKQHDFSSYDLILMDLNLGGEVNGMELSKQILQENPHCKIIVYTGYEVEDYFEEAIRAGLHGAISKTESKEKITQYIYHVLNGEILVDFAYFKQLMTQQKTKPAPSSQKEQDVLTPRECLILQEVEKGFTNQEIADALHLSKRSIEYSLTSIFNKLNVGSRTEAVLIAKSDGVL
T2 sequence 2: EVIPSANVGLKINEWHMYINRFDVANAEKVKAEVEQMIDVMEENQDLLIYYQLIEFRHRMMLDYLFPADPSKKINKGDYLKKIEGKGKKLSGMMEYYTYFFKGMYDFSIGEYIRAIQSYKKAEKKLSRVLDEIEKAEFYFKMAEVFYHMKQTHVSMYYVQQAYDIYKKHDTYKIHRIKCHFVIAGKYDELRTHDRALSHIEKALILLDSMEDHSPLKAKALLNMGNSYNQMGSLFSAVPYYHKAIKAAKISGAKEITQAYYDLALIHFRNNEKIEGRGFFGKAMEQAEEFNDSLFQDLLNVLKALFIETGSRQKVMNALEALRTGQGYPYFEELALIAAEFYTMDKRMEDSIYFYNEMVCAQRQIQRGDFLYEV

ComA;Rap60 = target: T3, ComA;Rap60 (Bacillus subtilis (genomic DNA; strain …, UniProt P14204;Q45456 2-214;2-375, |); assay: EMSA
T3 sequence 1: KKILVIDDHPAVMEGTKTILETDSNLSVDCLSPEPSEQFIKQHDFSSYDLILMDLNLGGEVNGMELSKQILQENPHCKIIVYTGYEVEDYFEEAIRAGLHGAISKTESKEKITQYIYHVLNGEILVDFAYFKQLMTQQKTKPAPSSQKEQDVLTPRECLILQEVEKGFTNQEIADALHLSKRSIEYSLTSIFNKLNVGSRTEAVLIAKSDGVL
T3 sequence 2: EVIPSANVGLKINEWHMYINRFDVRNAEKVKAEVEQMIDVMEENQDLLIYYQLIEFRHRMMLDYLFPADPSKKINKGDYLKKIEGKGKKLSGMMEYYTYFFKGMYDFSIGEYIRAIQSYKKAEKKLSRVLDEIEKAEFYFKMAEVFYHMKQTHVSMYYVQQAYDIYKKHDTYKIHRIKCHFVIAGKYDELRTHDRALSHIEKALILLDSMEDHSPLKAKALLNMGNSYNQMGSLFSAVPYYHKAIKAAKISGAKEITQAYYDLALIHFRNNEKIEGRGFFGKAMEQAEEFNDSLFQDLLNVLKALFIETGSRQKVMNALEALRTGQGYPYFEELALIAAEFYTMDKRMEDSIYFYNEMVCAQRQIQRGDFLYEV

ComA = target: T4, ComA (Bacillus subtilis (genomic DNA; strain …, UniProt P14204 2-214); assay: EMSA
T4 sequence: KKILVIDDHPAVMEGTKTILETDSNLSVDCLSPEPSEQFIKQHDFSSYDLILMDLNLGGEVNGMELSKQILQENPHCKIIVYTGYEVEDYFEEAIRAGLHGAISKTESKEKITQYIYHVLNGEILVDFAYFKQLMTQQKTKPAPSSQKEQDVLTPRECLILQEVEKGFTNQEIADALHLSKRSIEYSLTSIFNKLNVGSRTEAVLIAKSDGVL

Rap60 = target: T5, Rap60 (Bacillus subtilis plasmid pTA1060, UniProt Q45456 2-375); assay: EMSA
T5 sequence: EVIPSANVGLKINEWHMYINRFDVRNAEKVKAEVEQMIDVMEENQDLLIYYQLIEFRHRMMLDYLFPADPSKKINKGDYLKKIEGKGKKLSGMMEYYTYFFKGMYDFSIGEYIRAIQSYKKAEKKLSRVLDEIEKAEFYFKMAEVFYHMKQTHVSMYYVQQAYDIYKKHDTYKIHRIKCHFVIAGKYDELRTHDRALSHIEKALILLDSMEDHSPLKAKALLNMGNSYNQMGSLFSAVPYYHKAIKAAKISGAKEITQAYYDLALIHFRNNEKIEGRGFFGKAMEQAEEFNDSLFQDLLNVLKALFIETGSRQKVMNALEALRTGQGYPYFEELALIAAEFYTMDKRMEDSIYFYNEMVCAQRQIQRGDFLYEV

ComA;Rap60(N27A) = target: T6, ComA;Rap60(N27A) (Bacillus subtilis (genomic DNA; strain …, UniProt P14204;Q45456 2-214;2-375, |N27A); assay: EMSA
T6 sequence 1: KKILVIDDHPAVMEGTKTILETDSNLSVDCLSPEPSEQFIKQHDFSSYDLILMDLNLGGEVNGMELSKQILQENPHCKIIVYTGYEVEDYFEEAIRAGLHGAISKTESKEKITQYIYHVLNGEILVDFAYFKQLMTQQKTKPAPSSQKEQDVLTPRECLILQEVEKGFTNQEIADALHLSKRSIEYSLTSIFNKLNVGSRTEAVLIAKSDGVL
T6 sequence 2: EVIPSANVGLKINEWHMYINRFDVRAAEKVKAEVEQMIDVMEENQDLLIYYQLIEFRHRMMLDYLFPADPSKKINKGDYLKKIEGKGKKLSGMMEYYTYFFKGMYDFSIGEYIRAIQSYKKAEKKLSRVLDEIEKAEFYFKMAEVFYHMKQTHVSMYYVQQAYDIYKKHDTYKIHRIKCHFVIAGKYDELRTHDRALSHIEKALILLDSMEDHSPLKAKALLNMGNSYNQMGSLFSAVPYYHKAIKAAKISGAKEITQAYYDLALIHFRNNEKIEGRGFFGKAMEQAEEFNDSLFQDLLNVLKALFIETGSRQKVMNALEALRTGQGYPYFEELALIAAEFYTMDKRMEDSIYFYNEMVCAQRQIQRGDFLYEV

Chain of ComP(CD) (his6-ComP(CD)) (Q99027 384-769): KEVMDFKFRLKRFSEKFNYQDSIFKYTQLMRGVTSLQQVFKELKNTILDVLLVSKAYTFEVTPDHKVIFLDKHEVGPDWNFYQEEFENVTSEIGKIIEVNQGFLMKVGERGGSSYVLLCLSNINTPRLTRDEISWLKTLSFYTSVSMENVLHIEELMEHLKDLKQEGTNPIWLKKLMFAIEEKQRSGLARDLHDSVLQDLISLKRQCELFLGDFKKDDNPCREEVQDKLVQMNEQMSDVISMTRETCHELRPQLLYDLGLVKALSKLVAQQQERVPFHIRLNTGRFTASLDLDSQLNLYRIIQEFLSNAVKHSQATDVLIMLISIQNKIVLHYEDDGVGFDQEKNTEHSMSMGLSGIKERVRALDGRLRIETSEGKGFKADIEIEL

Molecule: Nc1ncnc2c1ncn2[C@@H]1O[C@H](COP(=O)(O)OP(=O)(O)OP(=O)(O)O)[C@@H](O)[C@H]1O [ATP]
- autophosphorylation with γ-32P-ATP, SDS-PAGE, phosphorimaging (ComP(CD) (his6-ComP(CD))): ComP autophosphorylation, ComP~P dephosphorylation, phosphotransfer from ComP to ComA

B1: minimal consensus ComA binding site (dsDNA)
DNA 1: TCATTGCGGCATCCCGCAAGAAACTTTGCGGTC
DNA 2: GACCGCAAAGTTTCTTGCGGGATGCCGCAATGA
- binding result (ComA;Rap60(R26P)): binds
- binding result (ComA;Rap60(R26A)): binds
- binding result (ComA;Rap60): binds
- binding result (ComA): binds
- binding result (Rap60): no binding
- binding result (ComA;Rap60(N27A)): binds
